Sequences and labels used below:
B1: yeast septin complex (Cdc3, Cdc10, Cdc11, Cdc12) (complex, yeast (S. cerevisiae))
chain 1: MSLKEEQVSIKQDPEQEERQHDQFNDVQIKQESQDHDGVDSQYTNGTQNDDSERFEAAESDVKVEPGLGMGITSSQSEKGQVLPDQPEIKFIRRQINGYVGFANLPKQWHRRSIKNGFSFNLLCVGPDGIGKTTLMKTLFNNDDIEANLVKDYEEELANDQEEEEGQGEGHENQSQEQRHKVKIKSYESVIEENGVKLNLNVIDTEGFGDFLNNDQKSWDPIIKEIDSRFDQYLDAENKINRHSINDKRIHACLYFIEPTGHYLKPLDLKFMQSVYEKCNLIPVIAKSDILTDEEILSFKKTIMNQLIQSNIELFKPPIYSNDDAENSHLSERLFSSLPYAVIGSNDIVENYSGNQVRGRSYPWGVIEVDNDNHSDFNLLKNLLIKQFMEELKERTSKILYENYRSSKLAKLGIKQDNSVFKEFDPISKQQEEKTLHEAKLAKLEIEMKTVFQQKVSEKEKKLQKSETELFARHKEMKEKLTKQLKALEDKKKQLELSINSASPNVNHSPVPTKKKGFLR
chain 2: MDPLSSVQPASYVGFDTITNQIEHRLLKKGFQFNIMVVGQSGLGKSTLINTLFASHLIDSATGDDISALPVTKTTEMKISTHTLVEDRVRLNINVIDTPGFGDFIDNSKAWEPIVKYIKEQHSQYLRKELTAQRERFITDTRVHAILYFLQPNGKELSRLDVEALKRLTEIANVIPVIGKSDTLTLDERTEFRELIQNEFEKYNFKIYPYDSEELTDEELELNRSVRSIIPFAVVGSENEIEINGETFRGRKTRWSAINVEDINQCDFVYLREFLIRTHLQDLIETTSYIHYEGFRARQLIALKENANSRSSAHMSSNAIQR
chain 3: MSGIIDASSALRKRKHLKRGITFTVMIVGQSGSGRSTFINTLCGQQVVDTSTTILLPTDTSTEIDLQLREETVELEDDEGVKIQLNIIDTPGFGDSLDNSPSFEIISDYIRHQYDEILLEESRVRRNPRFKDGRVHCCLYLINPTGHGLKEIDVEFIRQLGSLVNIIPVISKSDSLTRDELKLNKKLIMEDIDRWNLPIYNFPFDEDEISDEDYETNMYLRTLLPFAIIGSNEVYEMGGDVGTIRGRKYPWGILDVEDSSISDFVILRNALLISHLHDLKNYTHEILYERYRTEALSGESVAAESIRPNLTKLNGSSSSSTTTRRNTNPFKQSNNINNDVLNPASDMHGQSTGENNETYMTREEQIRLEEERLKAFEERVQQELLLKRQELLQREKELREIEARLEKEAKIKQEE
chain 4: MSAATATAAPVPPPVGISNLPNQRYKIVNEEGGTFTVMLCGESGLGKTTFINTLFQTVLKRADGQQHRQEPIRKTVEIDITRALLEEKHFELRVNVIDTPGFGDNVNNNKAWQPLVDFIDDQHDSYMRQEQQPYRTKKFDLRVHAVLYFIRPTGHGLKPIDIETMKRLSTRANLIPVIAKADTLTAQELQQFKSRIRQVIEAQEIRIFTPPLDADSKEDAKSGSNPDSAAVEHARQLIEAMPFAIVGSEKKFDNGQGTQVVARKYPWGLVEIENDSHCDFRKLRALLLRTYLLDLISTTQEMHYETYRRLRLEGHENTGEGNEDFTLPAIAPARKLSHNPRYKEEENALKKYFTDQVKAEEQRFRQWEQNIVNERIRLNGDLEEIQGKVKKLEEQVKSLQVKKSHLK
notes: Cdc3, yeast septin; Cdc10, yeast septin; Cdc11, yeast septin; Cdc12, yeast septin; Octamer at high salt (500 mM NaCl), filaments at low salt (100 mM NaCl); also called septin octamers; septin filaments; source: expressed and purified as described earlier (Farkasovsky et al., 2005); copies: 2 + 2 + 2 + 2

Series [1] deals with the molecule itself. Put plainly: negative-stain electron microscopy with single particle analysis; 0.1 µM septin octamers, with or without 0.5 µM Gic1; Cdc42-GppNHp or Cdc42-GDP at the concentration of Gic1 or 10 times higher (0.25, 1.5, 5 µM), 2 to 60 min; antibody labelling against Cdc3.
The target in series [2] is T1, Cdc10 (subunit of the purified yeast septin complex) (yeast (S. cerevisiae), UniProt P25342 1-322).
T1 construct: Cdc10, yeast septin; Never tested alone: it stood inside the complex m2; the subunit that is touched was assigned from antibody labelling, complexes lacking subunits and the known order of the subunits; source: subunit of the septin complex expressed and purified as described earlier (Farkasovsky et al., 2005)
T1 sequence (looked up): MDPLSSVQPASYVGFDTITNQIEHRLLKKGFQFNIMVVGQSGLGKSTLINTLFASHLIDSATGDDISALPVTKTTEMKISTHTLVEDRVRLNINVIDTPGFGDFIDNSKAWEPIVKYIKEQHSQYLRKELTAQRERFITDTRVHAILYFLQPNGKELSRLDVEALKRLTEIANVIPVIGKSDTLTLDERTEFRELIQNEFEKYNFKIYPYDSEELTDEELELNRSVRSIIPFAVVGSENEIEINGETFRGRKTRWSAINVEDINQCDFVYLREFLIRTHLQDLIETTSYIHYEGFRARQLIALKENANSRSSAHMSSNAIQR
Put plainly: negative-stain electron microscopy with single particle analysis; 0.3 µM septin hetero-oligomers, alone or with 1.5 µM Gic1, dialysed overnight at 4°C from high-salt buffer against low-salt buffer (100 mM NaCl, 20 mM Tris-HCl pH 7.5, 1 mM DTT); antibody labelling against Cdc11; adsorbed to a lipid monolayer. Conditions: both partners purified.

Series [3] has as its target T2, Cdc10(30-322) (subunit of the septin-Cdc10(30-322) complex) (yeast (S. cerevisiae), UniProt P25342 30-322).
T2 construct: Never tested alone: it stood inside the complex m5
T2 sequence (looked up): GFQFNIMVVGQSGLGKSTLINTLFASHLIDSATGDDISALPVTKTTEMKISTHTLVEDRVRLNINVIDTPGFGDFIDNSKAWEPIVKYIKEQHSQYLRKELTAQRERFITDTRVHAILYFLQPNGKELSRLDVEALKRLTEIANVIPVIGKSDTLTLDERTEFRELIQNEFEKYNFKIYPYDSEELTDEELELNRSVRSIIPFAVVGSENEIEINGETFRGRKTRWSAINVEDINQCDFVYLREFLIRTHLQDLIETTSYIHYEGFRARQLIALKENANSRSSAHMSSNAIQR
Described as above. The conditions noted are these: both partners purified.

Series [4] deals with T3, septin-Cdc10(30-322) complex (Cdc3, Cdc10(30-322), Cdc11, Cdc12) (yeast (S. cerevisiae), UniProt P32457 1-520; P25342 30-322; P32458 1-415; P32468 1-407).
T3 construct: Cdc3, yeast septin; Cdc11, yeast septin; Cdc12, yeast septin; Seen by EM as tetramers or inside-out octamers; no filaments at low salt; also called polymerization-impaired septin complexes; non-polymerizing septin; copies: + + +
The series is described as above. Conditions: both partners purified.

Series [5] has as its target T4, septin-Cdc11Δ complex (Cdc3, Cdc10, Cdc12) (yeast (S. cerevisiae), UniProt P32457 1-520; P25342 1-322; P32468 1-407).
T4 construct: Cdc3, yeast septin; Cdc10, yeast septin; Cdc12, yeast septin; Septin complex devoid of the Cdc11 subunit; copies: + +
T4 sequence (looked up) 1: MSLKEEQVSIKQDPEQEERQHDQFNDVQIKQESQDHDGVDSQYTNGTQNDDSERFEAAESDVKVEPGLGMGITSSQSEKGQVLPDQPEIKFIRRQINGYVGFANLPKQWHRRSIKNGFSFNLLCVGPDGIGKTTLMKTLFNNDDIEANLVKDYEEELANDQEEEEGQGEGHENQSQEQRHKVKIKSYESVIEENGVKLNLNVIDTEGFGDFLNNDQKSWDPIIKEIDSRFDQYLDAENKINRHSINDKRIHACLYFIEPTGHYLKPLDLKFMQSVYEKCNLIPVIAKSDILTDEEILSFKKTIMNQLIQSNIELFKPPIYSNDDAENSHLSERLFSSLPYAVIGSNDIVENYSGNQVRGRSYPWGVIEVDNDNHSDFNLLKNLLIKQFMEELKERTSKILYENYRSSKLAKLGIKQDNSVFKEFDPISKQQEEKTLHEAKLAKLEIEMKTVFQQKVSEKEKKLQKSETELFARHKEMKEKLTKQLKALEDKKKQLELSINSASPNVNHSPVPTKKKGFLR
T4 sequence (looked up) 2: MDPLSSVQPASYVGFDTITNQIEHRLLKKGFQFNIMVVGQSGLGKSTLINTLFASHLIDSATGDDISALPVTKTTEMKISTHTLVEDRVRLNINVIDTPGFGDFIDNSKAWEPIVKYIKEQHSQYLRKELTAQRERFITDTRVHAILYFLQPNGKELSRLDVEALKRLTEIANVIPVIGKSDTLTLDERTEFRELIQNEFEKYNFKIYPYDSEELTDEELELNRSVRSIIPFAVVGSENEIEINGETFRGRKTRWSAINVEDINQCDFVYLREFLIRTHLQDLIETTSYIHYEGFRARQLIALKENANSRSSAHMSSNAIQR
T4 sequence (looked up) 3: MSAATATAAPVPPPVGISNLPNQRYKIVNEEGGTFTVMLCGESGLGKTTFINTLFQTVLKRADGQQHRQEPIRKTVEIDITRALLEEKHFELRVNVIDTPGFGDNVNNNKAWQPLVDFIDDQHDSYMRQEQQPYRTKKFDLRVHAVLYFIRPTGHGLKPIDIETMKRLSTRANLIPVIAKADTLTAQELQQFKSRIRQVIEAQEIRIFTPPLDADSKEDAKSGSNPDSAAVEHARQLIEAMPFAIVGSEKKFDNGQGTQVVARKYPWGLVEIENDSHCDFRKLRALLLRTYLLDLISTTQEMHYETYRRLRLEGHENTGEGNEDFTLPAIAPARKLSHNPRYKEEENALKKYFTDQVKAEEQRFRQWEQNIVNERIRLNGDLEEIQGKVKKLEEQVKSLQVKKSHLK
Described as above. The conditions noted are these: both partners purified.

The target of series [6] is B1. Described as above. Conditions: both partners purified.
Series [7] concerns the molecule itself. Put plainly: SEC; gel filtration of purified Gic1(104-314) alone against protein standards; calculated 23.38 kDa, elutes at 49 kDa; monomer to dimer.

For B1, the binding result in series [1] is reported as “binds”.

B2: Gic1(104-314) (domain or fragment, yeast (S. cerevisiae), UniProt P38785 104-314, looked up)
chain: MFKKKDLLSRRHGSAKTAKQSSISTPFDFHHISHANGKREDNPLESHEEKHDVESLVKFTSLAPQPRPDSNVSSKYSNVVMNDSSRIVSSSTIATTMDSHHDGNETNNTPNGNKQLDSPTDLEMTLEDLRNYTFPSVLGDSVSEKTNPSSPSVSSFSGKFKPRELSALHTPELGNCFNVDQSLNSPGNRISVDDVLKFYYQCSETSTPRNT
notes: Gic1, yeast, residues 104-314 (N-terminal 103 amino acids deleted); gic1(310-942) in nucleotides; contains the CRIB domain and the C-terminus; Called simply Gic1 throughout the text; The methods say GST was cleaved with thrombin; Dimer by gel filtration; source: E. coli BL21 (DE3) Rosetta, purified (Ni-NTA, glutathione sepharose, Superdex S200)
B2: the binding result in series [2], in series [3], in series [4], in series [5] and in series [6] was “binds” each time. Further, in series [7], the stoichiometry N (usually a count of units in the complex or per binding partner) is about 2.

(Values after publication PMC3840788, “The role of Cdc42 and Gic1 in the regulation of septin filament formation and dissociation” (eLife, 2013).)
